Laboratory results reported in patent publication US20190111150A1 (AbbVie / Abbott, published 2019).

Experiments:
[1] = biological target: T1, recombinant cynomolgus monkey CD71 extracellular domain (cynomolgus monkey, UniProt H9EXL1 89-760 (rhesus entry)); assay: ELISA on coated recombinant cynomolgus CD71 ECD (rcCD71); Kapp
T1 construct: extracellular domain; also called rcCD71; monkey recombinant CD71
Procedure: (§1) In the ELISA examples, recombinant cynomolgus or human CD71 ECD proteins were coated on ELISA plates, and then incubated with one of a range of concentrations of the test articles of the present disclosure, followed by measurement of the amount of bound test article with a secondary antibody.

[2] = biological target: T2, recombinant human CD71 extracellular domain (human, UniProt P02786 89-760); assay: ELISA on coated recombinant human CD71 ECD (rhCD71); Kapp
T2 construct: extracellular domain; Treated as one molecule; also called rhCD71; human CD71 ECD
T2 sequence (P02786 89-760): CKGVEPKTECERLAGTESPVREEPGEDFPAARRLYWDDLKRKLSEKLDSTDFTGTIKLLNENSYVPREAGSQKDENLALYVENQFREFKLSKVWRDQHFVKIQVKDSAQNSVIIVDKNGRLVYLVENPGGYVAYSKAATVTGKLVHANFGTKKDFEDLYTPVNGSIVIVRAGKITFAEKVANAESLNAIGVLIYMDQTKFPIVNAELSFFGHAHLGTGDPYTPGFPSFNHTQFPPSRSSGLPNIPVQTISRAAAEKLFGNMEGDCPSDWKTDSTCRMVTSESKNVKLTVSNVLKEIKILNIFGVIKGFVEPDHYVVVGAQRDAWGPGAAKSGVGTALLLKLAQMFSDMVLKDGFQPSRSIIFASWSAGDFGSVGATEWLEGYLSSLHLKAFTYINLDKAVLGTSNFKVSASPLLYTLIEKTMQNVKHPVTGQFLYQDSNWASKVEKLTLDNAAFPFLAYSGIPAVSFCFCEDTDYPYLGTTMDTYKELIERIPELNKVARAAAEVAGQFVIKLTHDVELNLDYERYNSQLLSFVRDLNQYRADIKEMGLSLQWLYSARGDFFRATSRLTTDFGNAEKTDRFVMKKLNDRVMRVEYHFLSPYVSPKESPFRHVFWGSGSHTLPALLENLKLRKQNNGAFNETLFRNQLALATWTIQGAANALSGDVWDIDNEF
Procedure: as §1

[3] = biological target: T1, recombinant cynomolgus monkey CD71 …; assay: ELISA, recombinant cynomolgus CD71 (R&D Systems) coated at 1 ug/mL; Kd(app)
Procedure: (§2) The amount of bound antibody in each sample was detected by incubation and detection by goat anti-human antibody conjugated to horseradish peroxidase and Ultra TMB (Thermo Fisher Scientific) detection.

[4] = biological target: T1, recombinant cynomolgus monkey CD71 …; assay: ELISA on plate-coated recombinant cynomolgus CD71 (1 µg/mL), goat anti-human HRP, TMB, Abs 450
Procedure: as §2

[5] = biological target: T3, human CD71 on the surface of human cell lines (human, UniProt P02786 1-760); assay: flow cytometry, average of 4 human cell lines (HCC1806, HT-29, NCI-H292, NCI-H520); Kapp
T3 construct: whole, on cells; also called cell-surface human CD71; CD71 on BxPC3, NCI-H292, HCC1806, HT-29, NCI-H520 cells
T3 sequence (P02786 whole entry): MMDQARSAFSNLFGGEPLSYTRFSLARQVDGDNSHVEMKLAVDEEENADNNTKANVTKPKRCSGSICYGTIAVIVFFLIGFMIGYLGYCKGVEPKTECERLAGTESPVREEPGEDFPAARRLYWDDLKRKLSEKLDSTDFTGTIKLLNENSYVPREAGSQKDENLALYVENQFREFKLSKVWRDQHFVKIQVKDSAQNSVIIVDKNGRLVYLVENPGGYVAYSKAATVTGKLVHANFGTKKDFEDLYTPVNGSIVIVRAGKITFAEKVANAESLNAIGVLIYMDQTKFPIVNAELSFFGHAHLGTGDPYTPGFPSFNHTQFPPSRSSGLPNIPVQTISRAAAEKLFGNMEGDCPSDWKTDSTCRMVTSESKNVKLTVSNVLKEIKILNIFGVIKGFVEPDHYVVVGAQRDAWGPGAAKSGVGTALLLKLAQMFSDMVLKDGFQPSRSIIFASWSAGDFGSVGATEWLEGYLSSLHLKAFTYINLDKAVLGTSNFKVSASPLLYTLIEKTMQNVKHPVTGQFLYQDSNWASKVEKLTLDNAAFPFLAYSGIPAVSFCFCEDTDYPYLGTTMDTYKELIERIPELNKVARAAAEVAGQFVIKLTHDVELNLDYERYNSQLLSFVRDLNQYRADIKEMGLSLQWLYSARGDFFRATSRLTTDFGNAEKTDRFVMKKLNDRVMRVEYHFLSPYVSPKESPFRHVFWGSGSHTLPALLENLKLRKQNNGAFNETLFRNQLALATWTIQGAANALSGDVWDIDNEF
Source text: (§3) The flow cytometry results reflect the average measured Kapp from four human cell lines (HCC1806 human breast cancer, HT-29 human colorectal cancer, NCI-H292 human lung cancer, and NCI-H520 human lung cancer) and one CHO-K1 cell line expressing cynomolgus monkey CD71.

[6] = biological target: T2, recombinant human CD71 extracellular …; assay: ELISA, recombinant human CD71 (R&D Systems) coated at 1 ug/mL; Kd(app)
Procedure: as §2

[7] = biological target: T4, cynomolgus monkey CD71 on cells (cynomolgus monkey, UniProt H9EXL1 1-760 (rhesus entry)); assay: flow cytometry on CHO-K1 cells expressing cynomolgus CD71; Kapp
T4 construct: whole, on cells; also called cell-surface cynomolgus CD71; CHO w/ Cynomolgus CD71
T4 sequence (chain, as listed by the source): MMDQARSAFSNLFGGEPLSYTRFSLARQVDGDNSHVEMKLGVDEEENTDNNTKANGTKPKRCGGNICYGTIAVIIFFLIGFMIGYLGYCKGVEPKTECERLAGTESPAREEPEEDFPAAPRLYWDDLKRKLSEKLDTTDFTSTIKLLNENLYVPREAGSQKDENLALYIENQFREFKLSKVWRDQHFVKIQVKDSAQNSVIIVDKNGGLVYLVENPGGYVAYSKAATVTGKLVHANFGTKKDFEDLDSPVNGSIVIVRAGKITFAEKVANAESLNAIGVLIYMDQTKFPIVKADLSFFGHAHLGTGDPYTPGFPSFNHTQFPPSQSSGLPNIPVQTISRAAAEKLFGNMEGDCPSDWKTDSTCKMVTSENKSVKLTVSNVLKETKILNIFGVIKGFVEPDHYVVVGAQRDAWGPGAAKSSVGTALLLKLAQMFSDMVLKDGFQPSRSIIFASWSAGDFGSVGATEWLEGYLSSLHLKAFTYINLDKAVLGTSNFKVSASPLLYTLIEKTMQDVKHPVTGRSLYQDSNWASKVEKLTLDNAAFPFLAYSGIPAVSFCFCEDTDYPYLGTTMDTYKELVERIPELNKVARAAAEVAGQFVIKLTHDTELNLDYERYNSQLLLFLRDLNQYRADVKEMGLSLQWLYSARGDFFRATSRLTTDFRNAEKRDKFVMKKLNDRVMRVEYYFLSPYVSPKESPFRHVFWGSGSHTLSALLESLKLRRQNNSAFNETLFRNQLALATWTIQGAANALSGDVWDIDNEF
Source text: as §3

[8] = biological target: T3, human CD71 on the surface of human cell …; assay: FACS on NCI H292 cells; apparent Kd (Kapp)
recombinant mouse CD71 = biological target: T5, recombinant mouse CD71 (mouse, UniProt Q62351 89-763); assay: ELISA on recombinant mouse CD71 (ECD)
T5 construct: extracellular domain; also called mouse CD71 ECD
T5 sequence (Q62351 89-763): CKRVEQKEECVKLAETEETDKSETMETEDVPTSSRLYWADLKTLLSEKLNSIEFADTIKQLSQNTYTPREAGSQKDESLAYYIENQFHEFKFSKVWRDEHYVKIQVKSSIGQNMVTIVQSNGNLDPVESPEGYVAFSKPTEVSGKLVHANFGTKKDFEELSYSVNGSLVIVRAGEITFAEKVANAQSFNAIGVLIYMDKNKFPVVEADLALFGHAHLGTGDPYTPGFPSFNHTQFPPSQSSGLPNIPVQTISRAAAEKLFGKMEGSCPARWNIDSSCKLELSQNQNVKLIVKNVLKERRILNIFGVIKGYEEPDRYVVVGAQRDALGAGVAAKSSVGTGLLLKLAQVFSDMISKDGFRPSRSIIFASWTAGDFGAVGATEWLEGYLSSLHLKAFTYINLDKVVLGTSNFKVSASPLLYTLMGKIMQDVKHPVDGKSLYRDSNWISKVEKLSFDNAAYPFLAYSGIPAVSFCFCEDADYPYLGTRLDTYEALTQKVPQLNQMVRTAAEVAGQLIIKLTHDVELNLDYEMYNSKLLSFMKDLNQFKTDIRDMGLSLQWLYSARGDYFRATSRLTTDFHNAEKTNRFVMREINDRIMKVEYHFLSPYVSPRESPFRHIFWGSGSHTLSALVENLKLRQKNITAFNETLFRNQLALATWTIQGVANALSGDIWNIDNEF

[9] = biological target: T4, cynomolgus monkey CD71 on cells; assay: flow cytometry on cynomolgus monkey primary kidney epithelial cells; apparent Kd (Kapp)
[10] = biological target: T6, rat CD71 on rat H-4-II-E hepatoma cells (rat, UniProt Q99376 1-761); assay: flow cytometry on rat H-4-II-E hepatoma cells
T6 construct: whole, on cells; also called rat CD71-expressing cell line

[11] = biological target: T3, human CD71 on the surface of human cell …; assay: flow cytometry on human BxPC3 cells; apparent Kd (Kapp)
[12] = biological target: T2, recombinant human CD71 extracellular …; assay: ELISA on recombinant CD71 ECD; apparent Kd (Kapp)
[13] = biological target: T1, recombinant cynomolgus monkey CD71 …; assay: ELISA on recombinant CD71 ECD; apparent Kd (Kapp)
[14] = biological target: T3, human CD71 on the surface of human cell …; assay: FACS on cells
[15] = biological target: T1, recombinant cynomolgus monkey CD71 …; assay: ratio of Kapp; ELISA on rcCD71
Procedure: as §1

[16] = biological target: T4, cynomolgus monkey CD71 on cells; assay: ratio of Kapp; flow cytometry on CHO-K1 cyno CD71
Source text: as §3

[17] = biological target: T7, recombinant human FcγRIIa H131 (human, UniProt P12318 36-218, limits assumed); assay: SPR (Biacore), FcγR captured via 6xHis tag, steady state affinity model
T7 construct: also called huFcγRIIa H131; FcγIIa H131
T7 sequence (looked up): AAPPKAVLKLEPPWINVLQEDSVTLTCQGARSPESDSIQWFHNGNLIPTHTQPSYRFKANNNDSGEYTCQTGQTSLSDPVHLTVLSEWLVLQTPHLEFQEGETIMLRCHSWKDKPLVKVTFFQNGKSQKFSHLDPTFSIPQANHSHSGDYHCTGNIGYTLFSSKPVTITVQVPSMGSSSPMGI
Procedure: (§4) Mouse anti-6×His antibodies were directly immobilized on a CMS chip by amine coupling according to manufacturer's protocol to the density of 10000 RU. Human FcγRs were then captured on Flow Cells 2, 3 and 4 to achieve capture level of the FcγRs of 250-500 RU. Flow Cell 1 was used as a reference surface. HBS-EP+ buffer (GE, Healthcare) was used as the running buffer. […] The chip surfaces were regenerated with an injection of 100 mM HCl at a flow rate of 100 μL/minute for two seconds over all four flow cells. Three experiments with the use of three different CMS chips were run for each sample (each in duplicate) to accommodate all types of experimental error (instrument, surface and operator). The results of these three experiments were averaged.
(§5) All recombinant human FcγRIIIa V158 data and FcγRIIIa F158 data were fitted to 1:1 binding fit model with Rmax fixed local to account for variability in capture levels. Recombinant human FcγRIIb, FcγRIIa H131, and FcRn binding data were fitted to a steady state affinity model. Biacore T200 Evaluation Software Version 2.0 was used to fit all the data.

[18] = biological target: T4, cynomolgus monkey CD71 on cells; assay: flow cytometry on CHO cells expressing cynomolgus CD71, Alexa Fluor 647 goat anti-human IgG (MFI)
human FcRn = biological target: T8, human FcRn (human, UniProt P55899 24-297; P61769 21-119); assay: SPR (Biacore), antibody immobilized, FcRn injected, pH 6.0, steady state affinity model; FcRn at pH 6.0
T8 construct: also called Hu FcRn; neonatal Fc receptor
T8 sequence (P55899 24-297 limits assumed, form in doubt, chain 1 of 2): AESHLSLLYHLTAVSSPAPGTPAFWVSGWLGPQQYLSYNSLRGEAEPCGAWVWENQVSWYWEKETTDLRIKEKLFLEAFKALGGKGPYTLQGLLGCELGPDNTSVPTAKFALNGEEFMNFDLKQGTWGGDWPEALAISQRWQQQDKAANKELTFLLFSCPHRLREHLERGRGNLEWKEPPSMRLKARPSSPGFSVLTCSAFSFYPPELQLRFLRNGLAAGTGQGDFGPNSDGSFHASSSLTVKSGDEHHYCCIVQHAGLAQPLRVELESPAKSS
T8 sequence (P61769 21-119 limits assumed, form in doubt, chain 2 of 2): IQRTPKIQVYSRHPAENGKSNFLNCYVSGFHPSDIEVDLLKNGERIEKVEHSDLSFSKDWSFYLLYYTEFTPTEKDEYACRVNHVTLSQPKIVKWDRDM
Procedure: The surfaces were regenerated with an injection of 100 mM HCl for two seconds followed by HBS-EP+, pH 7.4. Samples were prepared and run in two running buffer systems, MES-EP+ pH 6.0 and HBS-EP pH 7.4. Three experiments with the use of three different CMS chips were run for each sample (each in duplicate) to account for instrument, surface and operator error. The results of these three experiments were averaged.
as §5

[19] = biological target: T3, human CD71 on the surface of human cell …; assay: ratio of Kapp; flow cytometry, average of 4 human cell lines
Source text: as §3

[20] = biological target: T2, recombinant human CD71 extracellular …; assay: ratio of Kapp; ELISA on rhCD71
Procedure: as §1

[21] = biological target: T9, recombinant human FcγRIIIa V158 (human, UniProt P08637 17-208); assay: SPR (Biacore), FcγR captured via 6xHis tag, 1:1 binding fit
T9 construct: also called huFcγRIIIa V158
T9 sequence (P08637 17-208 F176V): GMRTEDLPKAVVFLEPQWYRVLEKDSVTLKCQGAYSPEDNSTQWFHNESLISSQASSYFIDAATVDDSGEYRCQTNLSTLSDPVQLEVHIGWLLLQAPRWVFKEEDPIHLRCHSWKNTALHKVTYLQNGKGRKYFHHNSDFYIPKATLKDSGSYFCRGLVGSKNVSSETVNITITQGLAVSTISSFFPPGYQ
Procedure: as §4, §5

[22] = biological target: T10, recombinant human FcγRIIIa F158 (human, UniProt P08637 17-208); assay: as above
T10 construct: also called huFcγRIIIa F158
T10 sequence (P08637 17-208 limits assumed): as the sequence (P08637 17-208 F176V) above, with V160F counted along it
Procedure: as §4, §5

human FcγRI = human FcγRI (human, UniProt P12314 16-288, limits assumed); assay: FcγRI competition binding ELISA (results not shown)
human FcγRI, sequence (P12314 16-288 limits assumed): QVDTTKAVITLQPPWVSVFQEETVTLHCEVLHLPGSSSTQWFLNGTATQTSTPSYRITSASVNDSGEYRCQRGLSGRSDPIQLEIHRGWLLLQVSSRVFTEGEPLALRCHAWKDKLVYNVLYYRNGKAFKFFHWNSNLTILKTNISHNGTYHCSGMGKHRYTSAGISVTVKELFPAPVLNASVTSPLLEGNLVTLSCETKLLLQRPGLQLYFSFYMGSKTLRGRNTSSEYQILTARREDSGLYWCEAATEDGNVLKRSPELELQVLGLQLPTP

T1 sequence (chain, as listed by the source): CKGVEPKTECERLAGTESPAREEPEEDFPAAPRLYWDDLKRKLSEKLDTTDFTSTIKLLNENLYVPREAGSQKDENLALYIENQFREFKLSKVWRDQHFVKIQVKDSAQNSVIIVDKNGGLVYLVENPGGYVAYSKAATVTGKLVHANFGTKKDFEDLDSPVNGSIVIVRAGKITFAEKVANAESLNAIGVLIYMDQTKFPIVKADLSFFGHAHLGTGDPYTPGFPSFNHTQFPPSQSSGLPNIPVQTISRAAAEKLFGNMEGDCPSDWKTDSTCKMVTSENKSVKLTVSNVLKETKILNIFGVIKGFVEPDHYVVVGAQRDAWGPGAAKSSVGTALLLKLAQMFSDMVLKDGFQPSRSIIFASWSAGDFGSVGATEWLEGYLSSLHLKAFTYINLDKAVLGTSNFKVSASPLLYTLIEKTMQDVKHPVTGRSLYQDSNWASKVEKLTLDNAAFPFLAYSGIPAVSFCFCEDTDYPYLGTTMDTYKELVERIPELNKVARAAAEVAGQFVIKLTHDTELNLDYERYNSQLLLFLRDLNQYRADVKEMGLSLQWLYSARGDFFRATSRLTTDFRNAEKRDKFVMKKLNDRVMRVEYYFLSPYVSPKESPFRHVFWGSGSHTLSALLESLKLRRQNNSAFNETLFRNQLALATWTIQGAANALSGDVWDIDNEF

B1: anti-CD71-TF02.13-2011, protease-activated (cleaved) (antibody, not shown: small tags and cut ends)
heavy: not shown
light: DIQMTQSPSSLSASVGDRVTITCSASSSVYYMYWFQQKPGKAPKLWIYSTSNLASGVPSRFSGSGSGTDYTLTISSMQPEDFATYYCQQRRNYPYTFGQGTKLEIKRTVAAPSVFIFPPSDEQLKSGTASVVCLLNNFYPREAKVQWKVDNALQSGNSQESVTEQDSKDSTYSLSSTLTLSKADYEKHKVYACEVTHQGLSSPVTKSFNRGEC
notes: the mask is released
- Kd [1]: 0.04 nM
- Kd [2]: 0.06 nM
- Kd [3]: 0.06 nM
- EC50 (read off the curve) [4]: ~0.06 nM
- Kd [5]: 2 nM
- Kd [6]: 0.04 nM
- Kd [7]: 0.5 nM

B2: anti-CD71-TF02.13-2011-vcMMAE E2, protease-activated (cleaved) (antibody, not shown: small tags and cut ends)
heavy: not shown
light: DIQMTQSPSSLSASVGDRVTITCSASSSVYYMYWFQQKPGKAPKLWIYSTSNLASGVPSRFSGSGSGTDYTLTISSMQPEDFATYYCQQRRNYPYTFGQGTKLEIKRTVAAPSVFIFPPSDEQLKSGTASVVCLLNNFYPREAKVQWKVDNALQSGNSQESVTEQDSKDSTYSLSSTLTLSKADYEKHKVYACEVTHQGLSSPVTKSFNRGEC
modifications: vc-MMAE on interchain cysteine thiols; drug load 2 per antibody; chain and positions not stated
notes: m14 after protease treatment; the mask is released
- Kd [1]: 0.04 nM
- Kd [2]: 0.05 nM
- Kd [3]: 0.07 nM
- EC50 (read off the curve) [4]: ~0.07 nM
- Kd [5]: 2 nM
- Kd [6]: 0.05 nM
- Kd [7]: 0.7 nM

B3: anti-CD71 Ab21.12 LcB:HcC antibody (antibody, V domains shown)
VH: QVQLVQSGAEVKKPGASVKMSCKASGYTFTSYWMHWVRQAPGQGLEWIGAIYPGNSETGYAQKFQGRATLTADTSTSTAYMELSSLRSEDTAVYYCTRENWDPGFAFWGQGTLITVSS
VL: DIQMTQSPSSLSASVGDRVTITCSASSSVYYMYWFQQKPGKAPKLWIYSTSNLASGVPSRFSGSGSGTDYTLTISSMQPEDFATYYCQQRRNYPYTFGQGTKLEIK
notes: Humanized; also called huCD71 21.12 Ab; anti-CD71 21.12 antibody
- Kd [1]: 0.03 nM
- Kd [8]: 2.29 nM
- binding result (recombinant mouse CD71): no binding
- Kd [9]: 3 nM
- Kd [2]: 0.03 nM
- binding result [10]: no binding
- Kd [11]: 3 nM
- Kd [5]: 0.8 nM
- Kd [7]: 0.3 nM
- Kd [12]: 0.3 nM
- Kd [13]: 0.4 nM

B4: conjugated antibody anti-CD71 Ab21.12-vcMMAE E2 (antibody, V domains shown)
VH: QVQLVQSGAEVKKPGASVKMSCKASGYTFTSYWMHWVRQAPGQGLEWIGAIYPGNSETGYAQKFQGRATLTADTSTSTAYMELSSLRSEDTAVYYCTRENWDPGFAFWGQGTLITVSS
VL: DIQMTQSPSSLSASVGDRVTITCSASSSVYYMYWFQQKPGKAPKLWIYSTSNLASGVPSRFSGSGSGTDYTLTISSMQPEDFATYYCQQRRNYPYTFGQGTKLEIK
modifications: vc-MMAE conjugated; DAR about 2 (E2); positions not given
notes: Unmasked antibody drug conjugate of Ab21.12
- Kd [1]: 0.03 nM
- Kd [2]: 0.04 nM

B5: humanized anti-CD71 antibody Ab21.10 LcB:HcA (antibody, V domains shown)
VH: QVQLVQSGAEVKKPGASVKVSCKASGYTFTSYWMHWVRQAPGQGLEWMGAIYPGNSETGYAQKFQGRVTMTRDTSTSTVYMELSSLRSEDTAVYYCARENWDPGFAFWGQGTLVTVSS
VL: DIQMTQSPSSLSASVGDRVTITCSASSSVYYMYWFQQKPGKAPKLWIYSTSNLASGVPSRFSGSGSGTDYTLTISSMQPEDFATYYCQQRRNYPYTFGQGTKLEIK
notes: Detected with anti-human IgG
- binding result [14]: binds

B6: anti-CD71 activatable antibody anti-CD71-TF02.13-2011, intact (uncleaved) (antibody, human IgG1, kappa)
heavy: not shown
light: NLCTEHSAALDCRSYGGGSSGGSISSGLLSGRSDNPGGGSDIQMTQSPSSLSASVGDRVTITCSASSSVYYMYWFQQKPGKAPKLWIYSTSNLASGVPSRFSGSGSGTDYTLTISSMQPEDFATYYCQQRRNYPYTFGQGTKLEIKRTVAAPSVFIFPPSDEQLKSGTASVVCLLNNFYPREAKVQWKVDNALQSGNSQESVTEQDSKDSTYSLSSTLTLSKADYEKHKVYACEVTHQGLSSPVTKSFNRGEC
notes: copies: 2 + 2
- Kd [1]: 1.11 nM
- Ratio anti-CD71-TF02.13-2011/Ab21.12 [15]: 37
- Ratio anti-CD71-TF02.13-2011/anti-CD71-TF02.13-2011, matriptase activated [15]: 28
- Ratio anti-CD71-TF02.13-2011/Ab21.12 [16]: 93
- Ratio anti-CD71-TF02.13-2011/anti-CD71-TF02.13-2011, matriptase activated [16]: 56
- Kd [17]: 4700 nM
- EC50 (read off the curve) [18]: ~30 nM
- Kd [2]: 1.94 nM
- Kd [3]: 1.24 nM
- EC50 (read off the curve) [4]: ~1 nM
- Kd [5]: 106 nM
- Kd (human FcRn): 4700 nM
- Ratio anti-CD71-TF02.13-2011/Ab21.12 [19]: 127
- Ratio anti-CD71-TF02.13-2011/anti-CD71-TF02.13-2011, matriptase activated [19]: 55
- Ratio anti-CD71-TF02.13-2011/Ab21.12 [20]: 65
- Ratio anti-CD71-TF02.13-2011/anti-CD71-TF02.13-2011, matriptase activated [20]: 32
- Kd [21]: 180 nM
- Kd [22]: 1800 nM
- Kd [6]: 0.42 nM
- Kd [7]: 28 nM

B7: anti-CD71 conjugated activatable antibody anti-CD71-TF02.13-2011-vcMMAE E2, intact (uncleaved) (antibody, human IgG1, kappa)
heavy: not shown
light: NLCTEHSAALDCRSYGGGSSGGSISSGLLSGRSDNPGGGSDIQMTQSPSSLSASVGDRVTITCSASSSVYYMYWFQQKPGKAPKLWIYSTSNLASGVPSRFSGSGSGTDYTLTISSMQPEDFATYYCQQRRNYPYTFGQGTKLEIKRTVAAPSVFIFPPSDEQLKSGTASVVCLLNNFYPREAKVQWKVDNALQSGNSQESVTEQDSKDSTYSLSSTLTLSKADYEKHKVYACEVTHQGLSSPVTKSFNRGEC
modifications: vc-MMAE (maleimide caproyl-valine-citrulline linker with monomethyl auristatin E) on interchain cysteine thiols after partial TCEP reduction; drug load 2 per activatable antibody; chain and positions not stated
notes: E2 = enriched for drug load 2 (DAR about 2); also called AADC; copies: 2 + 2
- Kd [1]: 1.02 nM
- Kd [17]: 6200 nM
- EC50 (read off the curve) [18]: ~30 nM
- binding result (human FcγRI): binds
- Kd [2]: 2.58 nM
- Kd [3]: 1.49 nM
- EC50 (read off the curve) [4]: ~1 nM
- Kd [5]: 98.1 nM
- Kd (human FcRn): 5300 nM
- Kd [22]: 2100 nM
- Kd [6]: 0.48 nM
- Kd [7]: 35 nM
